Data on two molecules can be found in patent US20200199241A1 (Chugai, published 2020).

Usually Kd stands for the free concentration of one partner at which half of the binding sites on the other are occupied at equilibrium, for simple one-to-one binding. Read a low Kd as tighter binding.

Read-outs that look alike come from different tables or passages of the source.

Experiment [1] deals with T1, human FcγRIIb (human, UniProt P31994 43-217, limits assumed).
T1 construct: also called FcγIIB
T1 sequence: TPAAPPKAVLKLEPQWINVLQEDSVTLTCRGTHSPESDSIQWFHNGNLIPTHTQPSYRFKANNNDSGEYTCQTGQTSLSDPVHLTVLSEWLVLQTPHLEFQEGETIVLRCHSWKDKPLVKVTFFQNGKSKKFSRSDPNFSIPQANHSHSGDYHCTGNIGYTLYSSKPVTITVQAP
Put plainly: SPR (Biacore); ratio against IgG1. A general note: SPR reads the build-up and loss of mass on a sensor chip optically.
Description: (§1) Next, interaction between these antibodies and FcγR was analyzed kinetically using the BIACORE™ T100 (GE Healthcare). The interaction was measured at a temperature of 25° C. using HBS-EP+ (GE Healthcare) for the running buffer. The Series S Sensor Chip CMS (GE Healthcare) was used after immobilizing Protein A by amine coupling. […] Antibody captured on the chip was washed by allowing 10 mM glycine-HCl (pH 1.5) to react following measurement. The chip regenerated in this manner was used repeatedly. The dissociation constant KD (mol/L) was calculated from the association rate constant ka (L/mol/s) and dissociation rate constant kd (l/s) as calculated by global-fitting the measurement results with a 1:1 Langmuir binding model using the BIACORE™ Evaluation Software.

The target of experiment [2] is T1, human FcγRIIb. Put plainly: SPR (Biacore); ratio against IgG1. The source holds these as a separate data set.
For experiment [3], the target named is T1, human FcγRIIb. As to the kind of experiment: SPR (Biacore), antibody captured, FcγR as analyte.
Description: as §1
For experiment [4], the target named is T1, human FcγRIIb. As to the kind of experiment: SPR (Biacore), antibody captured, FcγR as analyte. The source holds these as a separate data set.
The target of experiment [5] is T2, human FcγRIa (human, UniProt P12314 16-292, limits assumed).
T2 construct: also called CD64
As to the kind of experiment: SPR (Biacore), antibody captured, FcγR as analyte.

For experiment [6], the target named is T3, human FcγRIIa type R (human, UniProt P12318 36-217).
T3 construct: also called FcγRIIaR; FcγRIIa(R)
T3 chain: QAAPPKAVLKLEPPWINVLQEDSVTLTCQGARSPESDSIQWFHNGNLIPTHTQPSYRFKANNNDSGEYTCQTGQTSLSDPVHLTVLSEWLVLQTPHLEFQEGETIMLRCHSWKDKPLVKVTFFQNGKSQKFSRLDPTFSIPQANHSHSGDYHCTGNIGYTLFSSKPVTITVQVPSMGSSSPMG
As to the kind of experiment: SPR (Biacore), antibody captured, FcγR as analyte.

Experiment [7] deals with T4, human FcγRIIa type H (human, UniProt P12318 36-217).
T4 construct: also called FcγRIIaH; FcγRIIa(H)
T4 sequence: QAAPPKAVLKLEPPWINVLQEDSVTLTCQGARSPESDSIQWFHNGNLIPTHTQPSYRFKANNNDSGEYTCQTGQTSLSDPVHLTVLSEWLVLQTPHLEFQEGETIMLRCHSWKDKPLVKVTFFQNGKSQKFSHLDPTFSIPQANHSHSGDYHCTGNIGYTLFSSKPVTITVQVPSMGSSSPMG
Put plainly: SPR (Biacore), antibody captured, FcγR as analyte.

Experiment [8] deals with T1, human FcγRIIb. As to the kind of experiment: SPR (Biacore), antibody captured, FcγR as analyte. This is another data set of the same source.
The target in experiment [9] is T5, human FcγRIIIa type V (human, UniProt P08637 17-208, limits assumed).
T5 construct: also called FcγRIIIaV; FcγRIIIa(V)
As to the kind of experiment: SPR (Biacore), antibody captured, FcγR as analyte.

For experiment [10], the target named is T1, human FcγRIIb. As to the kind of experiment: SPR (Biacore); ratio against parent IL6R-F11/IL6R-L.
Experiment [11] has as its target T2, human FcγRIa. Put plainly: SPR (Biacore), binding amount relative to IL6R-BF648/IL6R-L = 100.
Experiment [12] deals with T3, human FcγRIIa type R. The experiment is described as above.
Experiment [13] concerns the target T4, human FcγRIIa type H. The experiment is described as above.
The target in experiment [14] is T1, human FcγRIIb. The description is as above.
The target of experiment [15] is T5, human FcγRIIIa type V. Described as above.
Experiment [16] addresses T1, human FcγRIIb. As to the kind of experiment: SPR (Biacore); KD for FcγRIIaH divided by KD for FcγRIIb of the same antibody.
The target in experiment [17] is T1, human FcγRIIb. Put plainly: SPR (Biacore); KD for FcγRIIaR divided by KD for FcγRIIb of the same antibody.
A further experiment addresses T6, mouse FcRn (mouse, UniProt Q61559 22-297; P01887 21-119, limits assumed).
T6 construct: also called mFcRn
T6 sequence (looked up) 1: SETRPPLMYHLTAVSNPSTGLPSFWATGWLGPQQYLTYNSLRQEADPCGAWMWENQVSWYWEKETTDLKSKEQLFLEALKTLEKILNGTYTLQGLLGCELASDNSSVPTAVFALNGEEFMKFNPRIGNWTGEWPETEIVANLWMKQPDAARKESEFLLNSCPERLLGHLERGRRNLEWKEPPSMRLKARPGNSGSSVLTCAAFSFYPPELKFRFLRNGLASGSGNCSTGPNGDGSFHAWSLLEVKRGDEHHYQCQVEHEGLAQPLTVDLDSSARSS
T6 sequence (looked up) 2: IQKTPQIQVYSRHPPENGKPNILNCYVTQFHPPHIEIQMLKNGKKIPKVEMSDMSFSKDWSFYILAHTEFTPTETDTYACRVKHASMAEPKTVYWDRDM
Put plainly: SPR, mouse FcRn, pH 7.0.

T5 sequence (P08637 other isoform, or with tags, fused parts or gaps limits assumed): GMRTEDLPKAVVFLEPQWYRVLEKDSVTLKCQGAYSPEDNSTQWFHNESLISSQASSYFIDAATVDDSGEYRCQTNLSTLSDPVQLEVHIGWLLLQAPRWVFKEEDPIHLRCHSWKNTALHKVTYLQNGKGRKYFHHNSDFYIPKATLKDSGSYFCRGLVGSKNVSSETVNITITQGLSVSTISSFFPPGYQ
T2 sequence (P12314 16-292 limits assumed): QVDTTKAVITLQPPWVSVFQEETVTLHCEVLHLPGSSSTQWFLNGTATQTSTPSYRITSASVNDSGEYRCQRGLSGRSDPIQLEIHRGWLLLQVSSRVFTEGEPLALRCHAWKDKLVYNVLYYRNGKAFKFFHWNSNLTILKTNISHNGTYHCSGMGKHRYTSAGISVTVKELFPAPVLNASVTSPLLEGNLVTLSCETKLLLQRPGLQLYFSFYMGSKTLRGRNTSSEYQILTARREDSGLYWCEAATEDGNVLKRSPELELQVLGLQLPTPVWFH

B1: IL6R-G1d/IL6R-L (antibody, human IgG1)
heavy: not shown
light: DIQMTQSPSSLSASVGDRVTITCRASQDISSYLNWYQQKPGKAPKLLIYYTSRLHSGVPSRFSGSGSGTDFTFTISSLQPEDIATYYCQQGNTLPYTFGQGTKVEIK
notes: Anti-human IL-6 receptor antibody with the G1d constant region (human IgG1 without the C-terminal Gly-Lys); also called IgG1; IgG1 (IL6R-G1d)
Consider B1, for which the “relative KD for FcγRIIb (KD for IgG1/KD for each variant)” value in the experiment with human FcγRIIb [1] and in the experiment with human FcγRIIb [2] was 1 each time. In addition, the dissociation constant (Kd) with human FcγRIIb [3] was determined as 5300 nM; with human FcγRIIb [4], 5300 nM; with human FcγRIa [5] it was 0.32 nM; with human FcγRIIa type R [6], 1000 nM; with human FcγRIIa type H [7], 670 nM; in the experiment with human FcγRIIb [8], 2600 nM. Also, in the experiment with human FcγRIIIa type V [9], the dissociation constant Kd stood at 350 nM. Moreover, the “KD(IIb) of parent polypeptide/KD(IIb) of altered polypeptide” value with human FcγRIIb [10] came to 2.6. In addition, the relative binding in the experiment with human FcγRIa [11] was 140; with human FcγRIIa type R [12], 650; with human FcγRIIa type H [13], 1670; with human FcγRIIb [14], 62; with human FcγRIIIa type V [15], 3350. Further, in the experiment with human FcγRIIb [16], the “KD(IIaH)/KD(IIb)” value was found to be 0.3. In addition, the “KD(IIaR)/KD(IIb)” value in the experiment with human FcγRIIb [17] was 0.4.

B2: antibody with mPM1H-mIgG1-mF3 heavy chain and L(WT)-CK light chain (antibody)
heavy: DVQLQESGPVLVKPSQSLSLTCTVTGYSITSDHAWSWIRQFPGNKLEWMGYISYSGITTYNPSLKSRISITRDTSKNQFFLQLNSVTTGDTSTYYCARSLARTTAMDYWGQGTSVTVSSAKTTPPSVYPLAPGSAAQTNSMVTLGCLVKGYFPEPVTVTWNSGSLSSGVHTFPAVLQSDLYTLSSSVTVPSSTWPSETVTCNVAHPASSTKVDKKIVPRDCGCKPCICTVPEVSSVFIFPPKPKDVLYITLEPKVTCVVVDISKDDPEVQFSWFVDDVEVHTAQTQPREEQFNSTFRSVSELPIMHQDWLNGKEFKCRVNSAAFPAPIEKTISKTKGRPKAPQVYTIPPPKEQMAKDKVSLTCMITDFFPEDITVEWQWNGQPAENYKNTQPIMDTDGSYFVYSKLNVQKSNWEAGNTFTCSVLHEGLKFHHTEKSLSHSPGK
light: not shown
notes: T252Y/T256E/H433K/N434F; copies: 2 + 2
As to B2, the Kd with mouse FcRn was found to be 1.6 nM.
